Paper PMC4204210 (Molecular cell, 2014)

B1: Get3 purified under reducing conditions (Get3red) (natural protein, yeast)
chain: MDLTVEPNLHSLITSTTHKWIFVGGKGGVGKTTSSCSIAIQMALSQPNKQFLLISTDPAHNLSDAFGEKFGKDARKVTGMNNLSCMEIDPSAALKDMNDMAVSRANNNGSDGQGDDLGSLLQGGALADLTGSIPGIDEALSFMEVMKHIKRQEQGEGETFDTVIFDTAPTGHTLRFLQLPNTLSKLLEKFGEITNKLGPMLNSFMGAGNVDISGKLNELKANVETIRQQFTDPDLTTFVCVCISEFLSLYETERLIQELISYDMDVNSIIVNQLLFAENDQEHNCKRCQARWKMQKKYLDQIDELYEDFHVVKMPLCAGEIRGLNNLTKFSQFLNKEYNPITDGKVIYELEDKE
B2: Get3 oxidised with 2 mM H2O2 / 50 µM Cu2+ (Get3ox) (natural protein, yeast)
chain: B1 chain
modifications: intramolecular disulfide bonds connecting the next-neighbor conserved cysteines (C242/C244 and C285/C288)

Target: the molecule itself
Experiment: SEC-MALS

Protein | stoichiometry N
B1 | 2
B2 | 4
